# Measured values taken from paper PMC4470865 (Current biology : CB, 2015).
# Target: actin filaments (Alexa488 label on 3-20% of the actin in the microscopy assays)
# Assay: co-sedimentation
binder,measurement,value
"unlabeled Tm1A (recombinant AS-Tm1A, non-muscle Drosophila tropomyosin isoform Tm1A) (natural protein) MASMTTSIPQGTLLDVLKKKMRQTKEEMEKYKDECEEFHKRLQLEVVRREEAESEVAALNRRIQLLEEDLERSEERLGSATAKLSEASQAADESERIRKALENRTNMEDDKVALLENQLAQAKLIAEEADKKYEEVARKLVLMEQDLERSEEKVELSESKIVELEEELRVVGNNLKSLEVSEEKATQKEETFETQIKVLDHSLKEAEARAEFAERSVQKLQKEVDRLEDDLLNVRGKNKLLQEEMEATLHDIQNM",Kd,46 nM
